Like-named read-outs stand apart in the source and are kept apart here. Where a SMILES comes first, the peptide text is derived from it. The star is where a group is joined. X1 = O=C(O)c1cc(N*)ccc1O
How the values were obtained:
LO-2 cells [1] = experiment: Expression of Cat-B and CHOP in hepatocytes after drug exposure; assay type: cell-based, human; settings: LO-2 cells after treatment with APAP
Description: We initially investigated the changes within human hepatocytes in response to drug exposure.

APAP-induced ALF model = experiment: Therapeutic efficacy in APAP-induced ALF mouse model; assay type: in vivo, C57BL/6 mice; settings: ALF mice
Procedure: The in vivo therapeutic efficacy of SPNs was evaluated in an APAP-induced ALF model.
Following 24 h of treatment, liver tissue was collected from the mice and then stained with H&E, fluorescent dye-conjugated antibodies (TNF-α, 506303, Biolegend; IL-6, 504503, Biolegend; and IL-10, 505005, Biolegend) or TUNEL (G3250, Promega). A portion of the liver tissues was dispersed in lysis buffer and subsequently centrifuged to remove debris, followed by western blot for MAPK and assessment of cytokines, such as TNF-α, IL-6, IL-1β and IL-10, via ELISA assays. Hematological parameters were analyzed by KNOTUS (Incheon, Republic of Korea).

Cat-B = molecular target: T1, Cat-B (Homo sapiens, UniProt P07858); experiment: Enzyme-specific cleavage by HPLC, Cat-B; assay type: in vitro ADME; settings: 1 h, pH 5.5 MES buffer, 37°C, HPLC and LC/MS
T1 construct: purchased R&D systems 953CY
Procedure: (§1) After a 30 min reaction, the final product was purified and analyzed using an LC/MS system (Agilent 1200 Series HPLC system). The hydrodynamic size and zeta potential were analyzed by using a Zetasizer (Nano ZS, Malvern Instruments, Worcestershire, UK). The morphology of SPNs in distilled water was observed using transmission electron microscopy (CM-200, Philips, USA). The target enzyme-specific cleavage was evaluated through HPLC analysis after incubation with Cat-B (953CY, R&D systems, MN, USA), Cat-E (1294-AS, R&D systems), Cat-D (1014-AS, R&D systems), Cat-L (952-CY, R&D systems), MMP-9 (911-MP, R&D systems) or Cas-3 (707-C3/CF, R&D systems) in pH 5.5 2-(N-morpholino)ethane sulfonic acid (MES) buffer at 37°C.

Cat-D = molecular target: T2, Cat-D (Homo sapiens, UniProt P07339); experiment: Enzyme-specific cleavage by HPLC, Cat-D; assay type: in vitro ADME; settings: 24 h, pH 5.5 MES buffer, 37°C
T2 construct: purchased R&D systems 1014-AS
T2 sequence (P07339 65-412): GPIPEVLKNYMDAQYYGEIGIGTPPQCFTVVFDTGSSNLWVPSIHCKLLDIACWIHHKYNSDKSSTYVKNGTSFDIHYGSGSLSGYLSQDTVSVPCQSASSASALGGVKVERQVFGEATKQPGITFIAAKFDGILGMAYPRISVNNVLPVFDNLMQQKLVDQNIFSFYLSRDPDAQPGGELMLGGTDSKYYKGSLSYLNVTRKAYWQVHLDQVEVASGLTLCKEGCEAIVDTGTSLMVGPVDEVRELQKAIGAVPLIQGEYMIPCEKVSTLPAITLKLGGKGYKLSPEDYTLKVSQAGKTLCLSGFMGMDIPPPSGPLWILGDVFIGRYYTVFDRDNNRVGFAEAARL
Procedure: as §1

Cat-E = molecular target: T3, Cat-E (Homo sapiens, UniProt P14091); experiment: Enzyme-specific cleavage by HPLC, Cat-E; assay type: in vitro ADME; settings: 24 h, pH 5.5 MES buffer, 37°C
T3 construct: purchased R&D systems 1294-AS
T3 sequence (P14091 54-396): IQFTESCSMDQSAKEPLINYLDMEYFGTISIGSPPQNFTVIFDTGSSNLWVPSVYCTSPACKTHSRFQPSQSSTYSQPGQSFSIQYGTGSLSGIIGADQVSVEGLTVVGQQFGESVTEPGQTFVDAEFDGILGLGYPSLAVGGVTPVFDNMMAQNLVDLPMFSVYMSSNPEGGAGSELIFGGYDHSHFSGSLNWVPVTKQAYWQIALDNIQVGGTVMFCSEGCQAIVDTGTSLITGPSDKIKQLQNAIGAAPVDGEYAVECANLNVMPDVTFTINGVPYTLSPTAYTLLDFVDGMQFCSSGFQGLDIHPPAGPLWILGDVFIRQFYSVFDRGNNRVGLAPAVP
Procedure: as §1

Cat-L = molecular target: T4, Cat-L (Homo sapiens, UniProt P07711); experiment: Enzyme-specific cleavage by HPLC, Cat-L; assay type: in vitro ADME; settings: 24 h, pH 5.5 MES buffer, 37°C
T4 construct: purchased R&D systems 952-CY
T4 sequence (P07711 114-333): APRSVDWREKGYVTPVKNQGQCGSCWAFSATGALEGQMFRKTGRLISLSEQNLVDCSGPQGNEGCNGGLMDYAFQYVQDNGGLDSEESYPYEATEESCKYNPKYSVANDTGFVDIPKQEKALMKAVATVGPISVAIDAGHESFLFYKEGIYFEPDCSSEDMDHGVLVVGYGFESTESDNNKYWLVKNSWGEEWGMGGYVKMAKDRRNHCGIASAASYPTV
Procedure: as §1

Caspase 3 (Cas-3) = molecular target: T5, Caspase 3 (Cas-3) (Homo sapiens, UniProt P42574); experiment: Enzyme-specific cleavage by HPLC, Caspase 3; assay type: in vitro ADME; settings: 24 h, pH 5.5 MES buffer, 37°C
T5 construct: purchased R&D systems 707-C3/CF
T5 sequence (P42574 29-175 limits assumed): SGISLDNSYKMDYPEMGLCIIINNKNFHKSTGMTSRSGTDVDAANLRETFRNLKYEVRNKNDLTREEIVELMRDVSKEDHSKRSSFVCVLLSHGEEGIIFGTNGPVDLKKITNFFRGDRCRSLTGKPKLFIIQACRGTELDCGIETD
T5 sequence (P42574 176-277 limits assumed): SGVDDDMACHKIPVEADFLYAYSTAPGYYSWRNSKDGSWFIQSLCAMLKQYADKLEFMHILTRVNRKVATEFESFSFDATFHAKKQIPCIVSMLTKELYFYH
Procedure: as §1

[2] = molecular target: T6, matrix metalloproteinase 9 (MMP-9) (Homo sapiens, UniProt P14780); experiment: Enzyme-specific cleavage by HPLC, MMP-9; assay type: in vitro ADME; settings: 24 h, pH 5.5 MES buffer, 37°C
T6 construct: purchased R&D systems 911-MP
T6 sequence (P14780 94-707): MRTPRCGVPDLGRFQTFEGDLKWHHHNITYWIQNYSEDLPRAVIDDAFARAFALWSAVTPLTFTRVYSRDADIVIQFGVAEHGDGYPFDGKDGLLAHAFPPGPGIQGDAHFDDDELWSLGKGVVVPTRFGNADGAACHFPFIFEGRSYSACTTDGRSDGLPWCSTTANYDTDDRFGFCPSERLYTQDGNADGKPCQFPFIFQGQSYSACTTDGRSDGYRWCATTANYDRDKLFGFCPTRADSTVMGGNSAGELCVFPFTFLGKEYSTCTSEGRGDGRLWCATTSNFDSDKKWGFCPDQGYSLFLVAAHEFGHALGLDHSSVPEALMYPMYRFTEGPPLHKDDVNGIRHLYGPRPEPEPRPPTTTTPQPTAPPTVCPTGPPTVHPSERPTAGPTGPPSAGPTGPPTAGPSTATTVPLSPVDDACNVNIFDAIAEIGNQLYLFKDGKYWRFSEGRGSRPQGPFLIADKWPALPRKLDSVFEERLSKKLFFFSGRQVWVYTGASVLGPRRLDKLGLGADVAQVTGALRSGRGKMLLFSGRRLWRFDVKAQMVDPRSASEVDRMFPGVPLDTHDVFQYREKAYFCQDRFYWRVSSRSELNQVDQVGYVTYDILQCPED
Procedure: as §1

LO-2 cells [3] = experiment: Cytotoxicity assay (CCK-8), LO-2; assay type: cell-based, human; settings: 0 to 20 mM, 24 h, compared with mesalamine
MIHA cells = experiment: Cytotoxicity assay (CCK-8), MIHA; assay type: cell-based, human; settings: 0 to 20 mM, 24 h, compared with mesalamine
HepG2 cells = experiment: Cytotoxicity assay (CCK-8), HepG2; assay type: cell-based; settings: 0 to 20 mM, 24 h, compared with mesalamine
normal C57BL/6 mice = settings: mouse, in vivo
Procedure: The body weight was measured every two days. Seven days after treatment, the hematological parameters were assessed, including AST, ALT, BUN, creatinine, LDH, CK, red blood cell (RBC), hemoglobin (HGB), hematocrit (HCT), platelet (PLT), white blood cell (WBC), neutrophil (NEU) and lymphocyte (LYM). Major organs were collected from the mice and then observed using optical microscopy after H&E staining (BX 51, Olympus, USA). The levels of TNF-α, IL-1β and IL-6 in homogenized kidney tissues were quantified via ELISA assays.

healthy LO-2 cells [4] = test system: healthy LO-2 cells
Procedure: (§2) The cells were then washed with DPBS and dispersed in lysis buffer, followed by centrifugation at 12,000 rpm for 30 min to remove cell debris. Subsequently, the proteins were quantified using a BCA assay kit (23221, Thermo Fisher Scientific), boiled after mixing with sodium dodecyl sulfate loading buffer (NaraBio, Gyeonggi-do, Republic of Korea) for 5 min, and separated by 10% SDS polyacrylamide gel electrophoresis. […] HMGB1 and HSP70 were analyzed in the supernatants after incubating LO-2 cells using the same protocol described above. Finally, the membranes were incubated with goat anti-rabbit immunoglobulin-HRP antibody for 2 h.

[5] = Biodistribution by NIRF imaging in naive and ALF mice; assay type: in vivo, C57BL/6 mice; settings: ALF mice, intravenous
Procedure: The in vivo behavior of SPNs was assessed in healthy mice and APAP-induced ALF models. […] Fluorescence intensity in the images was quantified using LivingImage software. Ex vivo NIRF imaging was conducted with major organs collected from the mice 9 h post-treatment.

healthy LO-2 cells [6] = experiment: Release of DAMPs (HMGB1, HSP70) from healthy hepatocytes; settings: supernatants, western blot
Procedure: as §2

CC(=O)Nc1ccc(O)cc1 [APAP, acetaminophen]
Cat-B level compared to the naive cells (LO-2 cells [1]): 4.22 fold | increase in C/EBP homologous protein (CHOP) compared to the naive cells (LO-2 cells [1]): 1.58 fold

CC(=O)N[C@@H](CS)C(=O)O [NAC, N-acetylcysteine]
effects in preventing body weight loss and histohematological changes (APAP-induced ALF model; NAC 100 mg/kg i.v., compared with SPNs): limited effects

CC(=O)N[C@@H](Cc1ccccc1)C(=O)N[C@@H](CCCNC(=N)N)C(=O)N[C@@H](CCCNC(=N)N)C(=O)NCC(=O)Nc1ccc(O)c(C(=O)O)c1 [SPNs] (Ac-FRRG-X1)
cleavage upon incubation with Cat-B (Cat-B): completely decomposed into mesalamine | cleavage upon incubation with Cat-D (Cat-D): no detectable cleavage | cleavage upon incubation with Cat-E (Cat-E): no detectable cleavage | cleavage upon incubation with Cat-L (Cat-L): no detectable cleavage | cleavage upon incubation with Cas-3 (Caspase 3 (Cas-3)): no detectable cleavage | cleavage upon incubation with MMP-9 [2]: no detectable cleavage | toxicity to LO-2 cells (cell viability) (LO-2 cells [3]): significantly minimized the toxicity of mesalamine | toxicity to MIHA cells (cell viability) (MIHA cells): significantly minimized the toxicity of mesalamine | toxicity to HepG2 cells (cell viability) (HepG2 cells): significantly minimized the toxicity of mesalamine | histopathological toxicities in major organs (normal C57BL/6 mice): not observed | release of DAMPs (HMGB1 and HSP70) (healthy LO-2 cells [4]): did not increase DAMP release

CCN1\C(=C/C=C/C=C/C2=[N+](CCCCCC(=O)O)c3ccc4c(S(=O)(=O)O)cc(S(=O)(=O)O)cc4c3C2(C)C)C(C)(C)c2c1ccc1c(S(=O)(=O)[O-])cc(S(=O)(=O)O)cc21 [free Cy5.5]
in vivo clearance (NIRF imaging) [5]: rapid in vivo clearance

Nc1ccc(O)c(C(=O)O)c1 [mesalamine]
body weight change (APAP-induced ALF model; 24 h of treatment, mesalamine or SPNs 5 mg/kg mesalamine content i.v.): even more severe weight loss relative to the PBS group | AST and ALT levels (APAP-induced ALF model; 24 h post-treatment, 5 mg/kg mesalamine content i.v.): higher levels of these parameters compared to the PBS group | histopathological toxicities in major organs (normal C57BL/6 mice): substantial structural abnormalities and damaged areas in major organs | release of DAMPs (HMGB1 and HSP70) (healthy LO-2 cells [6]): significantly higher levels

Source: paper PMC11700871 (Theranostics, 2025)
